# Source: PMC5389812, “Rv3634c from Mycobacterium tuberculosis H37Rv encodes an enzyme with UDP-Gal/Glc and UDP-GalNAc 4-epimerase activities” (PLoS ONE, 2017)
# B1: His-tagged Rv3634c (H3634), wild type, UDP-Gal/Glc and UDP-GalNAc 4-epimerase from Mycobacterium tuberculosis H37Rv (enzyme)
# chain: MRALVTGAAGFIGSTLVDRLLADGHSVVGLDNFATGRATNLEHLADNSAHVFVEADIVTADLHAILEQHRPEVVFHLAAQIDVRRSVADPQFDAAVNVIGTVRLAEAARQTGVRKIVHTSSGGSIYGTPPEYPTPETAPTDPASPYAAGKVAGEIYLNTFRHLYGLDCSHIAPANVYGPRQDPHGEAGVVAIFAQALLSGKPTRVFGDGTNTRDYVFVDDVVDAFVRVSADVGGGLRFNIGTGKETSDRQLHSAVAAAVGGPDDPEFHPPRLGDLKRSCLDIGLAERVLGWRPQIELADGVRRTVEYFRHKHTD
# notes: the protein is called H3634 (His-tagged Rv3634c) in the size exclusion experiment; also called WT; WT H3634; not shown: His6, N-terminal, kept
# Target: the molecule itself
# Assay: SEC; Superdex 200 16/600 GL column, FPLC buffer (20 mM Tris pH 8.0, 100 mM NaCl); calibrated with conalbumin, ovalbumin, carbonic anhydrase, ribonuclease A and aprotinin; molecular weight from Kav
protein,measurement,value
B1,stoichiometry N,2
